Results as given in patent US7792665B2, “Method for designing a compound based on the three dimensional structure of phosphoinositide dependent protein kinase 1 (PDK1)” (Medical Research Council, priority 2002, dated 2010).
Entries after “also recorded” stand apart in the source; their conditions may differ.

Columns and labels:
PDK1[K76A] = biological target: T1, PDK1[K76A] (Homo sapiens, UniProt O15530, K76A); assay: PDK1 catalytic activity towards T308tide, activation by peptides, PDK1[K76A]; assay type: biochemical; conditions: high peptide concentrations
T1 construct: made in house; host or cells: human embryonic kidney 293 cells (pEBG2T vector)
T1 sequence (O15530 1-556 K76A): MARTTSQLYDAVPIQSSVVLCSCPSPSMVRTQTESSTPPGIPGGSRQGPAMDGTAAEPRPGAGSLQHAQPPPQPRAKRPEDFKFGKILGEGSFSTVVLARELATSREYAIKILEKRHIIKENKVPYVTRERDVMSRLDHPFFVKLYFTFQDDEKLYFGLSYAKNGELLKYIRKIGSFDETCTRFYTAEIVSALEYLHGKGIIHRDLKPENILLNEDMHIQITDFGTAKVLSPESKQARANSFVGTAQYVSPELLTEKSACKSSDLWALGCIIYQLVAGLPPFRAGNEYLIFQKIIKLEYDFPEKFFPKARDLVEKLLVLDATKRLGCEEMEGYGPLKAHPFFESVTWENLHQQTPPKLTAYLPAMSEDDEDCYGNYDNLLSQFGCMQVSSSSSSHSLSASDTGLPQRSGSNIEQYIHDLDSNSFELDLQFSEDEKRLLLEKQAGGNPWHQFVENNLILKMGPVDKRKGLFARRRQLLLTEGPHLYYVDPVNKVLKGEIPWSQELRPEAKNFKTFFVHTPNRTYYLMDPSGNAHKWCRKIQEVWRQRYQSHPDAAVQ
Method: (§1) C. Activation of the indicated forms of PDK1 by 56K-pHM and S6K-HM. PDK1 activity was measured using the peptide substrate (T308tide) in the presence of the indicated concentrations of 56K-pHM (closed circles) and S6K-HM (open circles) as described in the methods. Assays were performed in triplicate and similar results obtained in 2 separate experiments. The results are the average—SD for a single experiment.
The ability of wild type and mutant PDK1 to phosphorylate the synthetic peptide T308tide ([…] ([Biondi et al., 2000]) (SEQ ID NO:108) was carried out in 30 μl assays containing 100 ng of wild type or mutant PDK1, 50 mM Tris/HCl pH 7.5, 0.1% 13-mercaptoethanol, 10 mM MgCl2, 100 μM [32γ P]ATP (200 cpm/pmol), 0.5 μM microcystin-LR, 1 mM T308tide in the presence or absence of the indicated concentrations of the 56K-pHM peptide ([…](P)YVAPSV) (SEQ ID NO:104) or 56K-HM. peptide ([…]) (SEQ ID NO:105). After incubation for 10 min at 30° C., 25 μl of the resultant mixture was spotted into P81 phosphocellulose paper (2×2 cm) and the papers washed and analysed as described previously for assays of MAP kinase. Control assays were carried out in parallel in which either PDK1, or peptide substrate were omitted; these values were always less than 5% of the activity measured in the presence of these reagents. […]

PDK1[R131A] = biological target: T2, PDK1[R131A] (Homo sapiens, UniProt O15530, R131A); assay: PDK1 catalytic activity towards T308tide, activation by peptides, PDK1[R131A]; assay type: biochemical; conditions: high peptide concentrations
T2 construct: GST (N); made in house; host or cells: human embryonic kidney 293 cells (pEBG2T vector)
T2 sequence (O15530 1-556 R131A): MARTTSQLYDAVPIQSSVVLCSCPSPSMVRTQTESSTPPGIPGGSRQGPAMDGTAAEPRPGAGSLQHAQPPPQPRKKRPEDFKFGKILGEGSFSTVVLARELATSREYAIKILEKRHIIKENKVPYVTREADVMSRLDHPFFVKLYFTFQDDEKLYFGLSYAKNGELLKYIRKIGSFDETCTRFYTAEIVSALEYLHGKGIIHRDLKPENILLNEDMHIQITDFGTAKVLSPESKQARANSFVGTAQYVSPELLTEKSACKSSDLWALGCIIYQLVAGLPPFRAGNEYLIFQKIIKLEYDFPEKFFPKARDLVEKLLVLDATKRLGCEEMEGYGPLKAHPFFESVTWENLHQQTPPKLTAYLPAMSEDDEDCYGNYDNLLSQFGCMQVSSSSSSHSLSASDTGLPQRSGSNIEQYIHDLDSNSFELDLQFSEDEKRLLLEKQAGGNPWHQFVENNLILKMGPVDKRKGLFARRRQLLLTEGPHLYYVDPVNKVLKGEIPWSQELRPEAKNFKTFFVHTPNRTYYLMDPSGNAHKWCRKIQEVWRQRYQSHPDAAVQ
Method: as §1
The ability of wild type and mutant PDK1 to phosphorylate the synthetic peptide T308tide ([…] ([Biondi et al., 2000]) (SEQ ID NO:108) was carried out in 30 μl assays containing 100 ng of wild type or mutant PDK1, 50 mM Tris/HCl pH 7.5, 0.1% 13-mercaptoethanol, 10 mM MgCl2, 100 μM [32γ P]ATP (200 cpm/pmol), 0.5 μM microcystin-LR, 1 mM T308tide in the presence or absence of the indicated concentrations of the 56K-pHM peptide ([…](P)YVAPSV) (SEQ ID NO:104) or 56K-HM. peptide ([…]) (SEQ ID NO:105). After incubation for 10 min at 30° C., 25 μl of the resultant mixture was spotted into P81 phosphocellulose paper (2×2 cm) and the papers washed and analysed as described previously for assays of MAP kinase. Control assays were carried out in parallel in which either PDK1, or peptide substrate were omitted; these values were always less than 5% of the activity measured in the presence of these reagents. One Unit of PDK1 activity was defined as that amount required to catalyse the phosphorylation of 1 nmol of the T308tide in 1 min.

wild type PDK1 = biological target: T3, wild type PDK1 (Homo sapiens, UniProt O15530); assay: Surface plasmon resonance (BiaCore) binding of hydrophobic motif peptides, wild type PDK1; parameters: made in house; host or cells: human embryonic kidney 293 cells (pEBG2T vector); conditions: surface plasmon resonance
T3 sequence (O15530 1-556): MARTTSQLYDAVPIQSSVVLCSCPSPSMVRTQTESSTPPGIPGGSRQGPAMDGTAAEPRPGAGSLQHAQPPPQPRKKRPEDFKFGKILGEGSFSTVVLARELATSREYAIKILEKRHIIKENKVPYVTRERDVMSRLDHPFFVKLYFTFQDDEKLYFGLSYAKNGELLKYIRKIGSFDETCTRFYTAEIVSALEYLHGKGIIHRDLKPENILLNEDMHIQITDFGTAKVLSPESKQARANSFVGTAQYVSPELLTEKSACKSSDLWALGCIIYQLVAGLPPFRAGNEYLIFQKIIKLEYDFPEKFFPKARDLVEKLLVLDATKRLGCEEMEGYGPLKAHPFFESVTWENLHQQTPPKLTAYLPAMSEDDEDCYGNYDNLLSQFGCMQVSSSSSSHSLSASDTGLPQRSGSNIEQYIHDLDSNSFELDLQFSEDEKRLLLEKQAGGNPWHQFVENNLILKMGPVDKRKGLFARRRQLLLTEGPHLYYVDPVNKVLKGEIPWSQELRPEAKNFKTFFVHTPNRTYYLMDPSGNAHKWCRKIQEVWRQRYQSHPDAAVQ
Method: Binding and activation of wild type and mutant forms of PDK1 to a phosphopeptide derived from the hydrophobic motif of S6K1. The binding of the wild type (wt) PDK1 and indicated mutants to a phosphopeptide comprising the hydrophobic motif of S6K1 (S6K-pHM: […]*YVAPSV, where T* indicates phospho-threonine, SEQ ID NO:104) was analysed by surface plasmon resonance as described in the Materials and Methods.
A. The sensor chip SA was coated with 12RUs of the biotinylated S6K-pHM peptide and the binding was analysed following injection of 270 nM wild type PDK1, PDK1 [T148A] and PDK1 [K76A]. […] (data not shown).
B. As in A. except that binding was analysed over a range of PDK1 concentrations (2-2150 nM). The response level at the steady state binding is plotted versus the log of the PDK1 concentration. The estimated Kd was obtained by fitting the data to a sigmoid curve using Kaleidagraph software.
Binding was analysed in a BiaCore 3000 system (BiaCore AB, Stevenage, UK). Biotinylated S6K-pHM (Biotin-C12-[…](P)YVAPSV) (SEQ ID NO:104) or the non-phosphorylated form of this peptide S6K-HM was bound to an streptavidin-coated Sensor chip (SA) (12 response units, RU). 30 μl of wild type or the indicated mutant GST-PDK1 were injected at a flow rate of 30 μl/min, in buffer HBS-P (10 mM HEPES pH 7.4, 0.15M NaCl, 0.005% (by vol) polysorbate-20) supplemented with 1 mM DTT. Specific interactions between 56K-pHM and PDK1 proteins were obtained between the concentration range of 2-2150 nM PDK1. Steady state binding was determined at each concentration. Dissociation of PDK1 from the phospho-peptide was monitored over a 1 min period. Regeneration of the sensor chip surface was performed with 1{tilde over (0)} μl injections of 0.05% SDS. […] (RUmax=435). For all PDK1 construct tested, the off rates for S6Kp-HM were high in comparison to those of PIFtide binding with the time taken for 50% dissociation to occur for 56K-pHM is 30s compared to 1000s for PIFtide.

## S6K-HM: non-phosphorylated S6K-HM peptide (SESANQVFLGFTYVAPSV)
PDK1[K76A]
  activation of PDK1[K76A] by non-phosphorylated peptide: to a similar extent as wild type PDK1
PDK1[R131A]
  activation of PDK1[R131A] by non-phosphorylated peptide: to a similar extent as wild type PDK1
Wild type PDK1
  binding of wild type PDK1 to peptide: No detectable binding; also recorded: not detectably
